Results published in US20100172835A1 (BURNHAM INSTITUTE FOR MEDICAL RESEARCH, published 2010).
Bridges are numbered along the chain shown (N, C = ends). Where no end group is shown, it is not given here.

Assays:
[1] = molecular target: T1, gC1qR/p32 at the cell surface (human, UniProt Q07021 74-282); experiment: LyP-1 phage binding to Raji cells pre-incubated with 40 µg/ml mAb; ligand blocked: LyP-1 phage
T1 construct: whole, on cells; also called cell surface p32
T1 sequence (looked up): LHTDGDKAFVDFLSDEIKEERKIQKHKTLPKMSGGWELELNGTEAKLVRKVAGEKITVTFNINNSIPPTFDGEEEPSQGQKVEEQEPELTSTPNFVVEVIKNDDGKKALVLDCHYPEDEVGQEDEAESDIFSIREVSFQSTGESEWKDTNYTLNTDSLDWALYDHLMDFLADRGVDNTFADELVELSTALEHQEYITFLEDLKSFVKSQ

[2] = molecular target: T2, purified gC1qR/p32 protein (human, UniProt Q07021 74-282); experiment: LyP-1 phage binding to wells coated with purified gC1qR/p32 with 20 µg/ml mAb; ligand blocked: LyP-1 phage
T2 construct: also called purified p32
T2 sequence (looked up): T1 sequence (looked up)

[3] = molecular target: T1, gC1qR/p32 at the cell surface; experiment: FACS of FITC-peptide on MDA-MB-435 cells transfected with p32 siRNA or control siRNA
Description: (§1) 48 hours after transfection, inhibition of p32 expression was checked by immunoblot analysis and immunostaining (upper panels). β-actin was used as a control. […] Cells incubated in the absence of peptide served as negative control. […] A representative experiment out of three is shown. C. […] Insertless phage was used to determine background phage binding.
(§2) MDA-MB-435 cells were transiently transfected with gC1qR/p32-specific or control siRNAs. […] The amount of fluorescence in living cells was analyzed by FACS. Cells incubated in the absence of peptide served as FITC negative control.

[4] = molecular target: T1, gC1qR/p32 at the cell surface; experiment: FACS of 10 µM FITC-LyP-1 on MDA-MB-435 S35 cells with p32 siRNA or control siRNA
Description: as §1, §2

[5] = molecular target: T3, gC1qR/p32 from tumor cell extracts (human, UniProt Q07021 74-282); experiment: pull-down from MDA-MB-435 extracts, anti-gC1qR/p32 immunoblot
T3 construct: mature; From xenograft extracts an additional 75 kD band was also identified as gC1qR/p32; also called gC1q/p32 receptor; p32/p33/gC1qR/HABP1
T3 sequence (looked up): T1 sequence (looked up)

[6] = molecular target: T4, neuropilin-1 by forced expression on M21 cells (Homo sapiens (Human), UniProt O14786 22-923); experiment: cell-based or functional assay
T4 sequence (O14786 22-923 limits assumed, form in doubt): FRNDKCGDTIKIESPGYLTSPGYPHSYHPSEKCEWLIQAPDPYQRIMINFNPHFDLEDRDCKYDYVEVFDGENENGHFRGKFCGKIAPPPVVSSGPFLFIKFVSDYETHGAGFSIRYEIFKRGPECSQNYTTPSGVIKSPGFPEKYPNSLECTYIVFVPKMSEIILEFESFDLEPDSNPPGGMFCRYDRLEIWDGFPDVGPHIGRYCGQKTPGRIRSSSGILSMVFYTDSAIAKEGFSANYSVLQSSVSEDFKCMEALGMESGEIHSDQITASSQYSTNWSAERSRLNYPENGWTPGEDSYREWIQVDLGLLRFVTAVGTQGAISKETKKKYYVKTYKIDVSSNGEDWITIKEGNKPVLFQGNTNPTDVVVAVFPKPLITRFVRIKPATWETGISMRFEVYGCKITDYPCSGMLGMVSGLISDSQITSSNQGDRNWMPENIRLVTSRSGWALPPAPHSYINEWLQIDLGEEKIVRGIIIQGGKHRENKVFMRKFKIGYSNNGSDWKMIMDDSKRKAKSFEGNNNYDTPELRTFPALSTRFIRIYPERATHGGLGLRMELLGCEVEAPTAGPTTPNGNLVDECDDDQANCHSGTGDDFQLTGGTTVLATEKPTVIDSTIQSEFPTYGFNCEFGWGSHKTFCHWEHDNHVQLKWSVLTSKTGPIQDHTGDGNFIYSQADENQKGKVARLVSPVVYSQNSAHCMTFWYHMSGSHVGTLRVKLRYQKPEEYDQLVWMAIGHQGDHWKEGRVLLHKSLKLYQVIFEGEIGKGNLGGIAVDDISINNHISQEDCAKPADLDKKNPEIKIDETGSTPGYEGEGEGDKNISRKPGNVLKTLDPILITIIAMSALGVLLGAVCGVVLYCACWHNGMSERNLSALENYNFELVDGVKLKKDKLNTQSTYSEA

[7] = molecular target: T4, neuropilin-1 by forced expression on …; experiment: CRGDK phage binding to M21 cells transfected with neuropilin-1 cDNA, against untransfected or vector-only cells
[8] = molecular target: T2, purified gC1qR/p32 protein; experiment: phage binding to wells coated with purified gC1qR/p32, plaque assay
[9] = molecular target: T1, gC1qR/p32 at the cell surface; experiment: phage binding to C8161 cells transiently transfected with gC1qR/p32 cDNA
Description: as §1, with “A. C8161 cells were transiently transfected with pEGFP together with either empty pcDNA3.1 vector or p32 pcDNA3.1 vector. Transfected cells were sorted for EGFP expression and the sorted populations were used for phage binding assay and immunoblot analysis with anti-p32. […] 48” for “48”

[10] = molecular target: αv integrins; experiment: assay not described in the filing

Molecule: mouse monoclonal 60.11 anti-gC1qR/p32 antibody
- reduction of LyP-1 binding [1]: 50%
- reduction of LyP-1 phage binding [2]: 90%

Molecule: ARALPSQRSR (also: FITC conjugated, position not given here) [FITC conjugated control peptide ARALPSQRSR]
- binding result [3]: no binding (tested: 10 µM)

B1: FITC conjugated LyP-1 peptide (peptide)
peptide: CGNKRTRGC
modifications: disulfide 1-9 (inferred); also: FITC conjugated, position not given here
notes: Used at 10 uM on cells at 4 C; also called FITC-LyP-1
- binding result [4]: binds

B2: biotinylated CREKA peptide (peptide)
peptide: CREKA
modifications: also: biotinylated, position not given here
notes: Negative control in the pull-down; also called control peptide
- binding result [5]: no binding

Molecule: CRGDK (other, also: displayed on T7 phage capsid protein, not shown: T7 phage capsid protein) [CRGDK phage]
- internalization of CRGDK phage into M21 cells [6]: 3.5 fold
- fold increase in binding upon forced expression of neuropilin-1 [7]: 3.5 fold

B3: LyP-1 phage (other, not shown: large carriers)
chain: CGNKRTRGC
modifications: cysteine pairing not given here; also: displayed on phage coat protein
notes: Phage displaying the LyP-1 peptide; also called Lyp-1 expressing phage
- fold binding over insertless control phage [8]: 60 fold
- fold binding over control phage [9]: 5 fold

Molecule: CRGDK [CRGDK fragment]
- fold reduction in affinity (against iRGD) [10]: 50 to 150 fold

B4: biotinylated CRV peptide (peptide)
peptide: CRVRTRSGC
modifications: disulfide 1-9 (inferred); also: biotinylated, site not given here
notes: as for B2
- binding result [5]: no binding
